B1: Phototropin-1 (Arabidopsis thaliana (Mouse-ear cress)), O48963 (parent)
chain: MEPTEKPSTKPSSRTLPRDTRGSLEVFNPSTQLTRPDNPVFRPEPPAWQNLSDPRGTSPQPRPQQEPAPSNPVRSDQEIAVTTSWMALKDPSPETISKKTITAEKPQKSAVAAEQRAAEWGLVLKTDTKTGKPQGVGVRNSGGTENDPNGKKTTSQRNSQNSCRSSGEMSDGDVPGGRSGIPRVSEDLKDALSTFQQTFVVSDATKPDYPIMYASAGFFNMTGYTSKEVVGRNCRFLQGSGTDADELAKIRETLAAGNNYCGRILNYKKDGTSFWNLLTIAPIKDESGKVLKFIGMQVEVSKHTEGAKEKALRPNGLPESLIRYDARQKDMATNSVTELVEAVKRPRALSESTNLHPFMTKSESDELPKKPARRMSENVVPSGRRNSGGGRRNSMQRINEIPEKKSRKSSLSFMGIKKKSESLDESIDDGFIEYGEEDDEISDRDERPESVDDKVRQKEMRKGIDLATTLERIEKNFVITDPRLPDNPIIFASDSFLELTEYSREEILGRNCRFLQGPETDLTTVKKIRNAIDNQTEVTVQLINYTKSGKKFWNIFHLQPMRDQKGEVQYFIGVQLDGSKHVEPVRNVIEETAVKEGEDLVKKTAVNIDEAVRELPDANMTPEDLWANHSKVVHCKPHRKDSPPWIAIQKVLESGEPIGLKHFKPVKPLGSGDTGSVHLVELVGTDQLFAMKAMDKAVMLNRNKVHRARAEREILDLLDHPFLPALYASFQTKTHICLITDYYPGGELFMLLDRQPRKVLKEDAVRFYAAQVVVALEYLHCQGIIYRDLKPENVLIQGNGDISLSDFDLSCLTSCKPQLLIPSIDEKKKKKQQKSQQTPIFMAEPMRASNSFVGTEEYIAPEIISGAGHTSAVDWWALGILMYEMLYGYTPFRGKTRQKTFTNVLQKDLKFPASIPASLQVKQLIFRLLQRDPKKRLGCFEGANEVKQHSFFKGINWALIRCTNPPELETPIFSGEAENGEKVVDPELEDLQTNVF
partner: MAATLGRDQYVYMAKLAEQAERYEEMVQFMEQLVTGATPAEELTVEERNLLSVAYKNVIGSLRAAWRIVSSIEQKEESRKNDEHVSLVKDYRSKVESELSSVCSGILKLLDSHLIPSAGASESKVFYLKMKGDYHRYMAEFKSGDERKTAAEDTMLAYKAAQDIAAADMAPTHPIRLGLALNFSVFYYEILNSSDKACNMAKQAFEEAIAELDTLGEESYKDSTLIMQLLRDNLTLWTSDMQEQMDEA
B2: Phototropin-1 (Arabidopsis thaliana (Mouse-ear cress)), O48963 (parent)
chain: B1 chain
partner: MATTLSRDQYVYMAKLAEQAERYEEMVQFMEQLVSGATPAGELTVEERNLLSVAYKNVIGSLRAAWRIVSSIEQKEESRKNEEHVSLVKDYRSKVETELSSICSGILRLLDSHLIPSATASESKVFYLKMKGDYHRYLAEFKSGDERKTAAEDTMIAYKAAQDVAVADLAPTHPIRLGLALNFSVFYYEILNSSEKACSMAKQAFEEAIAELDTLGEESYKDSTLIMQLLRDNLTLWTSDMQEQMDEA

Variants of: B1
Settings: with 14336_arath GRF6, P48349

Variant	effect of a mutation on the interaction
S410A	disrupting interaction

Variants of: B1
Settings: with 14336_arath GRF6, P48349
Remark: another data set of the same source

Variant	effect of a mutation on the interaction
S350A	decreasing interaction

Variants of: B1
Settings: with 14336_arath GRF6, P48349
Remark: another data set of the same source

Variant	effect of a mutation on the interaction
S350A	disrupting interaction
S376A	disrupting interaction

Variants of: B1
Settings: with 14336_arath GRF6, P48349
Remark: another data set of the same source

Variant	effect of a mutation on the interaction
S376A	decreasing interaction

Variants of: B2
Settings: with 14338_arath GRF8, P48348

Variant	effect of a mutation on the interaction
S350A	disrupting interaction
S376A	disrupting interaction
S410A	disrupting interaction

— IntAct's records for PubMed 19524572
